This is an account of results in patent US20220204610A1, “PROTEIN BINDERS FOR IRHOM2” (NEW YORK SOCIETY FOR THE RELIEF OF THE RUPTURED AND …, priority 2019, published 2022).

The target in this assay is T1, human iRhom2 (Homo sapiens, UniProt Q6PJF5).
T1 construct: the single peptide 3 resembling amino acids 431 to 459 of the extracellular juxtamembrane domain of human iRhom2; made in house; host or cells: chemical synthesis (Fmoc solid phase peptide synthesis), no expression host
T1 sequence (Q6PJF5 with tags, fused parts or gaps): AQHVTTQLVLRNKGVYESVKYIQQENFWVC
As to the kind of experiment: Peptide binding ELISA, binding specificity (Example 10), iRhom2 peptides. The settings on record: antibody 3 μg/ml PBS; peptide coated at 10 μg/ml; normalized to IgM isotype control. Here is the method:
Another series of peptide binding ELISA experiments was conducted to address the specificity of the purified antibody 4H8-E3 of the invention, i.e. to question whether this antibody specifically recognizes peptides, in particular peptide 3, resembling the extracellular juxtamembrane region adjacent to the TMD1 of human iRhom2, or whether the antibody 4H8-E3 of the invention also binds to peptides reflecting the homologous region of the closely related family member human iRhom1.
In brief, on day 1, Nunc black MaxiSorp® 96-well plates (Thermo Fisher Scientific, USA) were coated overnight with 100 μl per well of single biotinylated peptides 1 to 4, Mix A consisting of peptides 1 to 4, single biotinylated peptides 1b to 4b, and Mix D consisting of peptides 1b to 4b at 10 μg/m1 PBS each (thus, the final concentration of each peptide in both mixes was 2.5 μg/m1) at 4° C. On day 2, peptide solutions were removed and MaxiSorp® plates were blocked with 300 μl per well of Pierce protein-free (TBS) blocking buffer (Thermo Fisher Scientific, USA) at room temperature for 1.5 hours. […] Using an infinite M1000 PRO (Tecan Group, Switzerland) microplate reader, the fluorescence of each well was collected at an excitation wavelength of 435 nm and an emission wavelength of 555 nm.
(ELISA stands for enzyme-linked immunosorbent assay.)

B1: 4H8-E3: Mouse IgM monoclonal antibody against the human iRhom2 juxtamembrane domain adjacent to TMD1; HC VD SEQ ID NO 33, LC VD SEQ ID NO 40 (antibody, V domains shown)
VH: EVQLQQSGPELVKPGASVKISCKASGYTFTDYYMNWVKQSHGKSLEWIGDINPNNGGTSYNQKFKGKATLTVDKSSNTAYMEFRSLTSEDSAVYYCARRGYYGVDYWGQGTTLTVSS
VL: NIVMTQSPKSMSMSVGERVTLNCKASENVGTYVSWYQQKPEQSPKLLIFGASNRYTGVPDRFIGSGFATDFTLTISSVQAEDLADYHCGQSYSYPYTFGGGTKLEIK
modifications: IgM constant regions; antibody sequence
In the case of B1, the “binding to single peptide 3 (amino acids 431 to 459 of human iRhom2)” value was “Binding”.
